According to PMC3798644, “Molecular Basis for Oligomeric-DNA Binding and Episome Maintenance by KSHV LANA” (PLoS Pathogens, 2013):

B3: LANA C-terminal DNA binding domain (residues 1011-1153), wild type (domain or fragment)
chain: HPRYQQPPVPYRQIDDCPAKARPQHIFYRRFLGKDGRRDPKCQWKFAVIFWGNDPYGLKKLSQAFQFGGVKAGPVSCLPHPGPDQSPITYCVYVYCQNKDTSKKVQMARLAWEASHPLAGNLQSSIVKFKKPLPLTQPGENQG
notes: source: E. coli, purified (Ni-NTA, tag cleaved with ULP1, second Ni-NTA, Superdex 75)

Experiments:
LANA DBD wild-type = molecular target: T1, LANA DBD wild-type (KSHV (HHV-8), UniProt Q9DUN0 825-967); experiment: fluorescence polarization; cooperative, Hill h > 1; Kd only in figure; FP: 200 mM NaCl, 20 mM HEPES, 1 mM DTT, (protein stock pH 7.4), 1 ug/mL BSA, 0.1 ug/mL poly(dA:dT), 0.001% Tween 20, 1 nM probe, room temperature 30 min; EMSA:; conditions: protein: recombinant; tags: His-SMT3 removed by ULP1; chain copies: 2; label: 5' 6-carboxyfluorescein; blunt
T1 sequence: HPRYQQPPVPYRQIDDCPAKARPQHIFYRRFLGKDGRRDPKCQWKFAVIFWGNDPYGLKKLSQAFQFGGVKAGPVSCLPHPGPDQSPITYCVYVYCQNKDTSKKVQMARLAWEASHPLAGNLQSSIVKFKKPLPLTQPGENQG

[1] = molecular target: B3; experiment: pull-down; His-SMT3-BRD ET domain held on Ni-NTA resin; untagged LANADBD or EBNA1DBD added; 200 mM NaCl, 20 mM HEPES, 5 mM BME, pH 8.0; washed with 10 CV; eluted with 300 mM imidazole; conditions: both partners purified
[2] = molecular target: the molecule itself; experiment: cross-linking; EGS, with a 1.2 molar excess of LBS1 DNA (unlabeled 21-mer); 200 mM NaCl, 20 mM HEPES pH 7.4, 1 mM DTT, room temperature; step: dimers and tetramers to higher oligomers
[3] = molecular target: T2, His-SMT3-BRD2 ET domain, long form (BRD2 633-801) (UniProt P25440 633-801); experiment: pull-down; His-SMT3-BRD ET domain held on Ni-NTA resin; untagged LANADBD or EBNA1DBD added; 200 mM NaCl, 20 mM HEPES, 5 mM BME, pH 8.0; washed with 10 CV; eluted with 300 mM imidazole; conditions: both partners purified
T2 construct: also called BRD2L

[4] = molecular target: the molecule itself; experiment: cross-linking; EGS, without DNA; 200 mM NaCl, 20 mM HEPES pH 7.4, 1 mM DTT, room temperature; samples boiled and run on gels

B1: LBS1 21-mer FP probe (dsDNA)
DNA 1: AGCGGCCCCATGCCCGGGCGG
DNA 2: CCGCCCGGGCATGGGGCCGCT
Question: Does B1 bind (LANA DBD wild-type)?
Answer: Result: binds

B2: His-SMT3-BRD2 ET domain, short form (BRD2 633-714) (domain or fragment, UniProt P25440 633-714, looked up)
chain: SEEEEESRPMSYDEKRQLSLDINKLPGEKLGRVVHIIQAREPSLRDSNPEEIEIDFETLKPSTLRELERYVLSCLRKKPRKP
notes: also called BRD2S
Question: Does B2 bind [1]?
Answer: Result: binds

Question: What does the source list for B3?
Answer: stoichiometry N [2]: ~10; binding result [3]: binds; stoichiometry N [4]: 4
